Patent publication US20200022914A1, “LIPOSOMAL COMPOSITIONS AND SOLID ORAL DOSAGE FORMS COMPRISING THE SAME” (UNIVERSITÄT HEIDELBERG, priority 2017, published 2020)

Assay: Single dose PK study of oral Adalimumab in comparison with intravenous administration
Type: in vivo
Details: beagle dogs; oral 15 mg in lyophilized liposomes with 1 mol-% cycR9 conjugate in enteric coated capsule vs 3 mg intravenous; comparison of AUC values, ELISA
Procedure: Single dose PK study of oral Adalimumab (Humira™) in comparison with Adalimumab after intravenous administration. As animals, 2 beagle dogs were used. The oral dose of Adalimumab was 15 mg encapsulated in liposomes containing 1-mol% of the cycR9 conjugate described before. The liposomes were lyophilized and afterwards filled in an enteric coated capsule. The intravenous dose was 3 mg. The blood sampling time points for the oral administration were: 0 (pre-dose), 0:15, 0:30, 1:00, 2:00, 4:00, 8:00, 24:00, 48:00, 96:00 h p.a. The blood sampling time points for the intravenous administration were: 0 (pre-dose), 0:15, 0:30, 1:00, 2:00, 4:00, 8:00, 24:00, 48:00, 96:00 h p.a. All blood samples were analyzed by ELISA measurements (IDKmonitor® Adalimumab drug level ELISA, Immundiagnostik AG, Bensheim).

Substance: Adalimumab
- bioavailability after oral administration: 3.55%
